Earlier results in PMC5681435, “Differential Regulation of G1 CDK Complexes by the Hsp90-Cdc37 Chaperone System” (Cell Reports, 2017).

Target: B-Raf V600E kinase domain (Homo sapiens) (UniProt P15056)
Test: ITC
Settings: cited from earlier work

Cdc37, sequence (Q16543 2-378): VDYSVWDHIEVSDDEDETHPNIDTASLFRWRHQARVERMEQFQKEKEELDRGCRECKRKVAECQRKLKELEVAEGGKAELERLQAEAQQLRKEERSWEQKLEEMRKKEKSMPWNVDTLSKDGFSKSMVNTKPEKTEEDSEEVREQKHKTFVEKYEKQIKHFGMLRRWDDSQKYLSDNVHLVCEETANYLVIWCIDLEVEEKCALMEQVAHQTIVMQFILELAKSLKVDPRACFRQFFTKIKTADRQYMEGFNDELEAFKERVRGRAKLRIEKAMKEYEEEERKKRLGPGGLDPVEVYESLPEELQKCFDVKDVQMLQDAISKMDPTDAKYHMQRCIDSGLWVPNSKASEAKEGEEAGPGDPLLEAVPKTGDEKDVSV
B-Raf V600E kinase domain (Homo sapiens), sequence (P15056 457-717 V600E): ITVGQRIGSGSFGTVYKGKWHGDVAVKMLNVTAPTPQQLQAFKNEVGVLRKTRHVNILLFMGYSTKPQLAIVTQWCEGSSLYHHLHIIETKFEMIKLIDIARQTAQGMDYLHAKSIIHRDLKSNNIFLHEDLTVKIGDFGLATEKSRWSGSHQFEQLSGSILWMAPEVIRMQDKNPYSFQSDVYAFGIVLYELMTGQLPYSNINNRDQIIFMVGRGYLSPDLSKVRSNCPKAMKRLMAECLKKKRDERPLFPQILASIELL

Cdc37 (from UniProt Q16543)
Kd: 200 nM
